Usually pKd stands for the Kd on a negative log10 scale, so that one unit is a factor of ten.

We go through seven molecules from patent publication US10215752B2, “Nanotube array for optical detection of protein-protein interactions” (MASSACHUSETTS INSTITUTE OF TECHNOLOGY, priority 2010, dated 2019).

pKd: −log10 of the molar value. Read-outs that look alike come from different tables or passages of the source.

For test [1], the target named is T1, GafD lectin (Escherichia coli, UniProt Q47341). The test is classed as binding. Details: made in house; host or cells: E. coli BL21(DE3) Star. The conditions noted are these: for sensor response / cross response to GafD lectin: controls and selectivity, FIG. 30a, FIG. 31. Here is the method: (§1) To increase the reproducibility of these sensors, an automated printing method of the chitosan gel was introduced (FIG. 35). Patterned glass microscope slides (Tekdon™) were inserted in a microarray printer (Digilab MicroSys System™), where the robotic head was programmed to dispense alternating layers of chitosan-SWNT (0.25 wt % chitosan (CHI), 1 vol % acetic acid, 30 ug/ml suspended (6,5) SWNT) and crosslinker (10 vol % glutaraldehyde). The suspended SWNT was made from Southwest Nanotechnologies, Inc. CoMoCAT® nanotubes sonicated in 0.25 wt % chitosan (CHI) and 1 vol % acetic acid for 45 minutes at 40% amplitude with a probe-tip sonicator (Cole Parmer, Model CV18). […] The chips were printed in a humidified enclosure (85% RH) at 25° C. and allowed to cross-link overnight in the same environment. Nickel-NTA groups were introduced as previously reported^8; see FIG. 3. Briefly, the chips were washed with a dilute basic buffer (0.01 M NaOH) and water three times. Carboxylic acid groups were introduced to the chitosan wrapped SWNT by bathing the chips in succinic anhydride (0.1 M) overnight. The chips were then washed three times with water and the carboxylic acid groups were activated via N-(3-dimethylaminopropyl)-N′-ethylcarbo diimide hydrochloride (EDC-0.1M) and N-hydroxysuccinimide (NHS-0.1M). The chips were bathed in this solution for 2 hours at 25° C. and examined for the expected formation of bubbles. The chips were again washed and allowed to bathe in a solution of a linked tricarboxylic acid group (Nα,Nα-bis(carboxymethyl)-L-lysine a.k.a. NTA-33 mM) overnight. The chips were washed in water again and stored in a 100 mM solution of NiSO4 to allow maximum binding of nickel to the NTA chelating groups.
(§2) A custom-made near infrared inverted microscope (Zeiss D.1 Observer™) setup allowed us to probe the fluorescent emissions of our SWNT sensors (FIG. 26a). The chips were secured on the microscope stage and the objective (50×/0.7 Zeiss™) was pushed in contact with a blank portion of the glass slide (no SWNT-CHI) to obtain a 5 second background spectrum, which was subtracted from the response spectra. The objective was then moved under a SWNT-CHI gel spot and again pushed in contact with the glass slide. […] The SWNT were excited by a 785 nm laser (B&W Tek™—495 mW) and the emission was sent to a spectrometer (Princeton Instruments Acton SpectraPro 2500i Spectrograph™) and accompanying nIR camera (Intervac MOSIR Camera 350™) The spectra were collected via WinSpec software (Princeton Instruments™) and analyzed with custom Matlab (Mathworks™) code. To maximize signal stability, the spectrometer was cooled with liquid nitrogen two hours prior to experimentation and the laser was allowed to reach peak stability for two hours. […] Data was gathered in the form of emission intensity spectra (950-1250 nm) integrated for 5 seconds.
(§3) A typical experiment was run for approximately 1000 frames (at 5 seconds each) and included a few addition and washing steps to detect lectin-glycan binding (FIG. 26b). First NiSO4 was again added to ensure that the SWNT sensors were responsive and that the NTA chelating groups were fully loaded with Ni^++ groups. The nickel was then washed away with PBS three times, leaving 20 ul of PBS on the sensors. The His-tag lectin was then added to the sensor (20 μl at 2 mg/ml) and allowed to bind for 300 seconds.

The test system of test [2] is SWNT-Chitosan lectin sensors. Nature of the test: Ensemble chitosan-SWNT sensor measurements, controls and overall response (lectin not stated). The conditions noted are these: FIG. 30a. The test is classed as binding. Here is the method:
To increase the reproducibility of these sensors, an automated printing method of the chitosan gel was introduced (FIG. 35). Patterned glass microscope slides (Tekdon™) were inserted in a microarray printer (Digilab MicroSys System™), where the robotic head was programmed to dispense alternating layers of chitosan-SWNT (0.25 wt % chitosan (CHI), 1 vol % acetic acid, 30 ug/ml suspended (6,5) SWNT) and crosslinker (10 vol % glutaraldehyde). The suspended SWNT was made from Southwest Nanotechnologies, Inc. CoMoCAT® nanotubes sonicated in 0.25 wt % chitosan (CHI) and 1 vol % acetic acid for 45 minutes at 40% amplitude with a probe-tip sonicator (Cole Parmer, Model CV18). For each sensor spot ten alternating layers of SWNT-CHI and cross-linker were printed at […] per layer, resulting in a highly-uniform gel of 1 ul SWNT-CHI material. […]
A custom-made near infrared inverted microscope (Zeiss D.1 Observer™) setup allowed us to probe the fluorescent emissions of our SWNT sensors (FIG. 26a). […] The SWNT were excited by a 785 nm laser (B&W Tek™—495 mW) and the emission was sent to a spectrometer (Princeton Instruments Acton SpectraPro 2500i Spectrograph™) and accompanying nIR camera (Intervac MOSIR Camera 350™) The spectra were collected via WinSpec software (Princeton Instruments™) and analyzed with custom Matlab (Mathworks™) code. […]

The next test addresses T2, PA-IIL lectin (Pseudomonas aeruginosa, UniProt Q9HYN5).
T2 construct: made in house; host or cells: E. coli BL21(DE3) Star
The test is classed as binding. The conditions noted are these: for sensor response / cross response to PA-IIL lectin: controls and selectivity, FIG. 30a, FIG. 31. The procedure:
as §1, §2, §3

The next test has as its target CDK4 (Homo sapiens, UniProt P11802). Put plainly: Protein-protein interaction on SWNT/CHI array, Förster distance calculation. The conditions noted are these: distance change after analyte protein CDK4, Förster equation.
The target of test [3] is T1, GafD lectin. The settings on record: 10 μM probe, sum of noise-reduced traces from 150 individual SWNT sensors.
Method: A second custom microscope was used to collect emission intensities of single SWNT sensors (FIG. 27a). The SWNT-CHI gel was diluted to 3 μg/ml of SWNT and spin-coated (3000 rpm for 30 s on Make of SpinCoater™) on glass-bottom petridishes (MarTec Corp™). The petri-dishes were then placed on the microscope platform (Zeiss D.1 Observer) and the oil-immersed objective (Zeiss™ 100×/1.46) was focused on the SWNT sensors on the glass surface. The SWNT were excited by a 660 nm laser (Crystal Laser—100 mW) and the emission intensities were recorded by a nitrogen-cooled InGaAs array (Princeton Instruments™). […] These Tiff images were then analyzed using custom Matlab code (Mathworks™) to construct a intensity versus time trace for each SWNT sensor (FIG. 27c).
The use of single nanotube spectroscopy allowed this question to be addressed (FIG. 32). […] Using software developed in house, the movies of SWNT fluorescence were analyzed and intensity time traces were extracted for each of the individual SWNT sensors (FIG. 37).^24b An efficient algorithm for fitting large quantities of these time traces to embedded fluorescent levels was used.^35 Briefly, the algorithm used an optimized form of an established noise-reduction algorithm for biological experiments^36 to clean the traces (FIG. 37c). It then evaluated all-points histograms of each trace to determine the unique fluorescent states of each trace. […]
The target in test [4] is T1, GafD lectin. The settings on record: probe 1 mg/ml with GafD 3 mg/ml in solution.
Method: The interaction between lection and glycan was analyzed by 15% native PAGE according to the method of Schagger and von Jagow with minor modifications. […] Briefly, blectrophoresis was performed using Mini Protean Electrophoresis system (Bio-Rad, USA™) for molecular interaction under nondenaturing conditions. Nonreduced protein/glycan samples in the sample buffer (20% glycerol, 200 mM Tris-HCl, pH 6.8, 0.05% bromophenol blue) were applied to the gel (gel buffer: 25 mM Tris-HCl, 200 mM glycine). Electrophoresis was performed at 80 V for 120 min. After electrophoresis, the protein bands were visualized by staining with Coomassie Brilliant Blue R-250.
Setting [5] is: after Ni2+ and GafD lectin loading, FIG. 29a-b.
Where [6] appears, read: from concentration dependent curves, analyte to PA-IIL.
Setting [7] is: from concentration dependent curves, analyte to GafD.

T1 sequence (Q47341 23-343): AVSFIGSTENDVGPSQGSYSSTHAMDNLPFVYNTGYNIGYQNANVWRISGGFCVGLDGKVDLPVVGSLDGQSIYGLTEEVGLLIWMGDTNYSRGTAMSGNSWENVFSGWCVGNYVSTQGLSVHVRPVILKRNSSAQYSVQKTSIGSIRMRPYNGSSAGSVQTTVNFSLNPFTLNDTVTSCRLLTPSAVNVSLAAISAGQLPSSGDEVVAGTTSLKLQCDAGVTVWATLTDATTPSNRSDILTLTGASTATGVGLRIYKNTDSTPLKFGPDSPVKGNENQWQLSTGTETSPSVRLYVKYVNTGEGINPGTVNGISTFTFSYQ
T2 sequence (Q9HYN5 entry or part of it): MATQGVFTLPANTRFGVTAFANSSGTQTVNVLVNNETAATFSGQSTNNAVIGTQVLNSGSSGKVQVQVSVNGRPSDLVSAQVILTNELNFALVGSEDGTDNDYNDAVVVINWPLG
Chain of CDK4 (P11802 with tags, fused parts or gaps): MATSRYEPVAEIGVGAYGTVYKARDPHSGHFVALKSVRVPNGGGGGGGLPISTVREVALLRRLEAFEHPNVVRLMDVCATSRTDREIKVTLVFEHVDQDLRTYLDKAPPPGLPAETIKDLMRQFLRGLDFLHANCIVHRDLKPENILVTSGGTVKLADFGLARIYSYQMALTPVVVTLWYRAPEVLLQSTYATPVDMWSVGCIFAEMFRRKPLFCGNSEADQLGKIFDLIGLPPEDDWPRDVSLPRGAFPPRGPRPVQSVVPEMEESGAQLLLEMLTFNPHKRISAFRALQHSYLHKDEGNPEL
Method for CDK4: Reaction mixtures for cell-free protein expression were added to each array wells. The fluorescent intensities of each SWNT/CHI well were taken to track the intensity changes. To initiate protein synthesis, 1 μl PCR-amplified DNAs were added to each well a humidified chamber at 37° C. for 2 hours. The arrays were washed three times for 10 min each with PBS buffer (pH 7.4, 100 mM) at RT and then PL spectra were taken. To analyze protein-protein interaction on SWNT/XHI array, anti-Histag antibody or cell-free expressed protein mixtures were added to each well and then PL spectra were taken to compare the intensity change.
Near-infrared photoluminescence spectra were acquired using 785 nm excitation and an Acton SP-150 spectrograph coupled to a Princeton instruments OMA V InGaAs detector or with Kaiser Holospec f/1.8 Imaging Spectrograph (Kaiser Optical).

“blank streptavidin: streptavidin (Sigma Aldrich SO677) without glycan”: the “time response (loading curve) upon analyte addition” value (“time response” for short) with GafD lectin [1] (GafD lectin biotinylated, positive control, FIG. 29c) is recorded as “expected loading curve was observed”; with GafD lectin [1] (setting [5]), “No loading curve was observed”. Also, the “sensor response of controls” value in test [2] is “negligible response”.

At PA-IIL lectin (setting [6]), “Fucα1-2Galβ1-4Glcβ-SpNH-LC-LC-Biotin [Fuc-Biotin]” gave a pKd of 3.97, a Kf of 7e-05 µM/s and a kr of 0.0074 s⁻¹.

On to “p16: human derived protein (ExPASy P42771), on-chip cell-free expressed with His-tag”, for which, in the test with CDK4, the Δd2 was 0.05174.

Take “GlcNAcβ-SpNH-LC-LC-Biotin [GlcNAc-Biotin]”: the “time response” value on GafD lectin [1] (setting [5]) is recorded as “loading curve was observed”. On GafD lectin [1] (setting [7]), the pKd is 4.72, the Kf was 0.0002 µM/s and the kr came to 0.0037 s⁻¹.

In the case of `O=C(O)CCCC[C@@H]1SC[C@@H]2NC(=O)N[C@@H]21` [biotin], in test [2], the “sensor response of controls” value is recorded as “negligible response”.

Consider “Fuc-Strept: model glycoprotein probe: biotinylated fucose glycan bound to streptavidin”, for which the “sensor response / cross response to GafD lectin” value with GafD lectin [1] was “small affinity”. The “sensor response / cross response to PA-IIL lectin” value in the test with PA-IIL lectin was “positive response”. In the test with PA-IIL lectin (setting [6]), this molecule showed a Kf of 0.0001 µM/s.

As to “GlcNAc-Strept: model glycoprotein probe: biotinylated GlcNAc glycan bound to streptavidin”, the “time response” value in the test with GafD lectin [1] (setting [5]) is recorded as “SPR-like loading curve was observed”. Besides, in the test with GafD lectin [1], the “sensor response / cross response to GafD lectin” value is given as “positive response”. Moreover, in the test with GafD lectin [1] (setting [7]), the Kf worked out at 0.0003 µM/s and the kr is 0.015 s⁻¹. Moreover, in the test with PA-IIL lectin, the “sensor response / cross response to PA-IIL lectin” value is “negligible binding”. In addition, the “signal modulation (response)” value with GafD lectin [3] is around 3.5%. In the test with GafD lectin [4], the “complex formation on native PAGE gel” value is given as “bound complex”.
